Target: thrombin (UniProt P00734;P00734 328-363;364-622)
Assay: electrochemical aptasensor (DPV); immobilized aptamer; signal suppression on thrombin binding; LOD 0.26 fM, range 1.0 fM to 1.0 uM (abstract), not a Kd; Thrombin incubation 40 min at ambient temperature, wash with PBS; DPV in 25 mM PBS pH 7.0, -0.1 to 0.5 V

GGTTGGTGTGGTTGG (ssDNA, 5'-SH-(CH2)6) [TBA (thrombin aptamer)]
binding result: binds
